Residue numbers refer to the chain shown, from its start.
B1: 4G2.2G6 (protein)
chain 1: QIQLVQSGPDLKKPGETVKISCKASGYTFTTYVMSWVKQAPGKDLKWMGWINTHSGVPTYADDFKGRFDFSLETSANTAFLQINNLKNEDTATYFCTRDGNDGDAMDNWGQGTSVTVSS
chain 2: not shown
B2: 15G7.2A7 (protein)
chain 1: EVQLQQSGPELVKPGASVKISCKASGYTFTDYYMNWVKQSHGKSLEWIGDINPNNGGTNYNQKFKGKATLTVDKSSSTAYMELRSLTSEDSAVYYCTSGYGFPYWGQGTLVTVSA
chain 2: DIQMNQSPSSLSASLGDTISITCRASQNINIWLSWYQQKPGNIPQLLIYKASNLHTGVPSRFSGSGSGTDFTLTISSLQPEDIATYYCLQGQSYPLTFGAGTKLVMK
B3: 20D11.2C6 (protein)
chain 1: B2 chain 1 with Y32F, M34I, N54K, T58I, Q62P, G66I, A79S, E82D, S85G
chain 2: B2 chain 2 with S20T, N30Y, Q45K, S77T, Y87F, V105E
B4: 846T.1H2 (protein)
chain 1: QIQLVQSGPELKKPGETVKISCKASGYTFTNYGMNWVKQAPGKGLKWMGWINTNTGEPTYAEEFKGRFAFSLETSASTAYLQINNLKNEDTATYFCATGGGNWDFDYWGQGTTLTVSS
chain 2: not shown
B5: 6H6.2D6 (protein)
chain 1: QIQLVQSGPELKKPGETVKISCKASGYTFTTYGMSWVKQAPGKGLKWMAWINTYSGVPTYADDFKGRFAFSLETSASTAYLQINNLTNEDTATYFCARGPYAMDYWGQGTSVTVSS
chain 2: DIQMTQTTSSLSASLGDRVTISCSASQGISNYLNWYQQKPDGTVKLLIYYTSSLHSGVPSRFSGSGSGTDYSLTISNLEPEDIATYYCQQYSELPYTFGSGTKLEIK
B6: 23H9.2E4 (protein)
chain 1: B5 chain 1 with G33A, A49G, F64L, T87K
chain 2: B5 chain 2 with S30N, T51A, E93Q, L94V
B7: 20H5.A3 (protein)
chain 1: B5 chain 1 with T17S, T28A, K38Q, A49G, I51V, Y60C, T87R
chain 2: B5 chain 2 with S22N, G28D, H55L, Y87F, E93K, K103H
B8: 19B5.2E6 (protein)
chain 1: B5 chain 1 with G33A, A49G, F64L, T87K
chain 2: B5 chain 2 with S30N, T51A, E93Q, L94V
B9: 13H12.2F8 (protein)
chain 1: QIQLVQSGPELKKPGETVKISCKASGYTFTTYGMSWVKQAPGKGLKWMGWINTYSGVPTYADDFKGRFAFSLETSASTAYLQINNLKNEDTATYFCAVPYEYDGAYWGQGTLVTVSA
chain 2: not shown
B10: 19D9.2E5 (protein)
chain 1: B9 chain 1 with S35G, A76T, T91M, V98T
chain 2: not shown
B11: 14H10.2C9 (protein)
chain 1: B9 chain 1 with S35G, G44D, N84S, A97S, V98T
chain 2: not shown
B12: mIMT001 (IMT001) (protein)
chain 1: QIQLVQSGPELKKPGETVKISCKASGYTFTNYGMNWVKQAPGKGLKWMGWINTNTGEPTYVEEFKGRFAFSLETSASTAYLQINNLKNEDTATYFCAPYDNFFAYWGQGTLVTVSA
chain 2: DIVITQDELSNPVTSGESVSISCRSSKSLLYKDGKTYLNWFLQRPGQSPQLLIYLMSTHASGVSDRFSGSGSGTDFTLEISRVKAEDVGVYYCQQLVDYPLTFGAGTKLELK
B13: 13A12.2E5 (protein)
chain 1: QIQLVQSGPELKKPGETVKISCKTSGYKFKTYVMSWVKQAPGKALKWMGWINTYSGVPTYADDFKGRFAFSLETSASTAYLEIINLKNEDTATYFCARDGNYGDPMDYWGQGTSVTVSS
chain 2: DVVMTQTPLTLSVAIGQPASISCKSSQSLLYTNGKTYLNWLLQRPGQSPKRLIYLLSKLDSGVPDRFSASGSGTDFTLKISRVEAEDLGVYYCLQSTHFPLTFGAGTKLEMK
B14: 3B11.2G2 (protein)
chain 1: B13 chain 1
chain 2: not shown
B15: 846.2H3 (protein)
chain 1: QIQLVQSGPELKKPGETVKISCKASGYTFTNYGMNWVKQAPGKGLKWMGWINTYTGEPSYADDFKGRFAFSLETSASTAYLQINNLKNEDMATYFCARWGGYDGDYYAMDYWGQGTSVTVSS
chain 2: NIMMTQSPSSLAVSAGEKVTMSCKSSQSVLYSSNQKNYLAWYQQKPGQSPKLLIYWASTRESGVPDRFTGSGSGTDFTLTISSVQPEDLAVYYCHQYLSSLTFGAGTKLELK
B16: 846.1F5 (protein)
chain 1: B15 chain 1
chain 2: B15 chain 2
B17: 2D10.2B2 (protein)
chain 1: QVQLQQSGPELVKPGASVKISCKASGYTFTDYYINWVKQRPGQGLEWIGWIYPGSNDTKYNEKFKGKATLTVDTSSSTAYMQLGSLTSEDSAVYFCANYFGCSGWFFDVWGTGTTVTVSS
chain 2: DIVMTQAAFSNPVTLGTSASISCRSSKSLLHSDGITYLYWYLQRPGQSPQLLIYRMSNLASGVPDRFSGSGSGTDFTLRISRVEAEDVGVYYCAQMIEFPLTFGAGTILELK
B18: 4A11.2B5 (protein)
chain 1: QVQLQQSGPELVKPGASVKISCKASGYSFTNYYIHWVKQRPGQGLEWIGWIYPGSGNTNYNEKFKGKATLTADTSSSTTNMQLSSLTSEDSAVYYCSTAPGGFDVWGSGTTVTVSS
chain 2: B17 chain 2 with I97L, I108K

Biological target: Human Galectin-3 protein (Acro Biosystems, GA3-H5129)
Assay: ELISA, hGal3 coated, competitor hTIM3 (FIG. 24)

Protein | GAL3-TIM3 assembly, % of level without antibody
B1 | to 50-75% of levels observed in the absence of a GAL3-targeted antibody
B2 | to 50-75% of levels observed in the absence of a GAL3-targeted antibody
B3 | to 50-75% of levels observed in the absence of a GAL3-targeted antibody
B4 | to 5-20% of levels observed in the absence of a GAL3-targeted antibody
B5 | to 5-20% of levels observed in the absence of a GAL3-targeted antibody
B6 | to 20-50% of levels observed in the absence of a GAL3-targted antibody
B7 | to 5-20% of levels observed in the absence of a GAL3-targeted antibody
B8 | to 20-50% of levels observed in the absence of a GAL3-targted antibody
B9 | to 20-50% of levels observed in the absence of a GAL3-targted antibody
B10 | to 50-75% of levels observed in the absence of a GAL3-targeted antibody
B11 | to 50-75% of levels observed in the absence of a GAL3-targeted antibody
B12 | to 5-20% of levels observed in the absence of a GAL3-targeted antibody
B13 | to 50-75% of levels observed in the absence of a GAL3-targeted antibody
B14 | to 50-75% of levels observed in the absence of a GAL3-targeted antibody
B15 | to less than 5% of levels observed in the absence of a GAL3-targeted antibody
B16 | to 5-20% of levels observed in the absence of a GAL3-targeted antibody
B17 | to 5-20% of levels observed in the absence of a GAL3-targeted antibody
B18 | to 50-75% of levels observed in the absence of a GAL3-targeted antibody

From US20260234269
